# Laboratory results taken from patent publication US20050250935A1 (priority 2004, published 2005).
substance,measurement,setting,value
human follicle—stimulating hormone [FSH],"estimated FSH activity, in vivo biological assay in rat",,6578 IU per mg protein
same,"FSH activity in the lower sample after centrifugation, in vivo test",rat,undetectable
same,"FSH activity in the upper sample after centrifugation, in vivo test",rat,97%
